Results reported in patent US20060002928A1.

Assays:
murine B7-DC (murine) [1] = target: murine B7-DC (murine) (UniProt Q9WUL5); assay: flow cytometry competition on murine bone marrow derived DC; preincubation with PD-1.Ig, staining with sHIgM12 as competitor read out
murine B7-DC (murine) [2] = target: murine B7-DC (murine) (UniProt Q9WUL5); assay: cell-based or functional assay
murine B7-DC (murine) [3] = target: murine B7-DC (murine) (UniProt Q9WUL5); assay: flow cytometry competition on murine DC; preincubation with sHIgM12, staining with PD-1.Ig as competitor read out
murine B7-DC (murine) [4] = target: murine B7-DC (murine) (UniProt Q9WUL5); assay: flow cytometry on 293T cells transfected with murine B7-DC

murine B7-DC (murine), sequence (Q9WUL5 20-247): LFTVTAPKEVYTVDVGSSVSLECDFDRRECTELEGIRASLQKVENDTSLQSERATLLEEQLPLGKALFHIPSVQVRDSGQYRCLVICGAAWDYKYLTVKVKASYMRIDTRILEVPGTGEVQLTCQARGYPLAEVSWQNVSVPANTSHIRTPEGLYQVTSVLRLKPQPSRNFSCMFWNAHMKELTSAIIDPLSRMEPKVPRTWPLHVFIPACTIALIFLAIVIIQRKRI

Substance	sHIgM12 staining left, percent of the level without PD-1 (murine B7-DC (murine) [1]) [%]	GFP+, CD11c+ DC recovered from draining lymph nodes after adoptive transfer (murine B7-DC (murine) [2]) [fold]	IL-12 p70 release by DC (ELISA of culture supernatants) (murine B7-DC (murine) [2]) [fold]	ability of lymph node DC to induce an antigen-specific T cell response (murine B7-DC (murine) [2]) [fold]	percentage of cellular metabolism (Alamar Blue) maintained 24 hours after cytokine withdrawal from DC (murine B7-DC (murine) [2]) [%]	PD-1 binding left, percent of the level without sHIgM12 (murine B7-DC (murine) [3]) [%]	percent of transfected cells stained (murine B7-DC (murine) [4]) [%]
PD-1.Ig fusion protein (Fc fusion)	50	–	–	–	–	–	–
sHIgM12 (human monoclonal IgM antibody, pentameric, purified from patient serum)	–	5	3	10	80	20	97
